The series concerns the molecule itself. Nature of the series: SDS-PAGE.

B1: recombinant human FIT2 WT, 3FLAG-tagged (enzyme, UniProt Q8N6M3 1-262, looked up)
chain: MEHLERCEWLLRGTLVRAAVRRYLPWALVASMLAGSLLKELSPLPESYLSNKRNVLNVYFVKVAWAWTFCLLLPFIALTNYHLTGKAGLVLRRLSTLLVGTAIWYICTSIFSNIEHYTGSCYQSPALEGVRKEHQSKQQCHQEGGFWHGFDISGHSFLLTFCALMIVEEMSVLHEVKTDRSHCLHTAITTLVVALGILTFIWVLMFLCTAVYFHNLSQKVFGTLFGLLSWYGTYGFWYPKAFSPGLPPQSCSLNLKQDSYKK
As to B1, the binding result was “binds”.

(Values after article PMC7659722 (The Journal of Cell Biology, 2020).)
